Test results taken from patent US20260001920A1.

Assays:
Experiment in all cases: cell-based or functional assay
[1] = target: RpPpsR2 mutant (with Q105T and L137E introduced) (NLSx3-MS2-RpPpsR2 mutant) (bacteriophage MS2; Rhodopseudomonas palustris) (UniProt P03612)
[2] = target: RpPpsR2 mutant (with Q105S and L137E introduced) (NLSx3-MS2-RpPpsR2 mutant) (bacteriophage MS2; Rhodopseudomonas palustris) (UniProt P03612)
[3] = target: RpPpsR2 domain-modified body D4-D1-D2 (NLSx3-MS2-RpPpsR2 mutant) (bacteriophage MS2; Rhodopseudomonas palustris) (UniProt P03612)
[4] = target: RpPpsR2 mutant L110A (NLSx3-MS2-RpPpsR2 mutant) (bacteriophage MS2; Rhodopseudomonas palustris) (UniProt P03612)
[5] = target: RpPpsR2 domain-modified body D1-D2 (del C 15) (NLSx3-MS2-RpPpsR2 mutant) (bacteriophage MS2; Rhodopseudomonas palustris) (UniProt P03612)

Substance	light-dependent activation (ratio of NIR signal intensity to Dark signal intensity), CPTS luminescence reporter in HEK293T cells [1] [times]	light-dependent activation (ratio of NIR signal intensity to Dark signal intensity), CPTS luminescence reporter in HEK293T cells [2]	light-dependent activation (NIR against Dark), CPTS luminescence reporter in HEK293T cells [3] [times]	gene activation by light irradiation (NIR against Dark), CPTS luminescence reporter in HEK293T cells [4] [times]	light-dependent activation (NIR against Dark), CPTS luminescence reporter in HEK293T cells [5] [times]
RpBphP1 mutant (with Q502A and E513A introduced) (NLSx3-RpBphP1 mutant-p65-HSF1)	> 10	10 >			
wild-type RpBphP1 (NLSx3-RpBphP1-p65-HSF1)			7.2	13.4	9.6
